Results reported in US20250057776A1.

Molecular target: human integrin β5 (human) (UniProt P18084)
Experiment: cell-based or functional assay

Chain of UniProt P18084 (P18084 24-799 limits assumed): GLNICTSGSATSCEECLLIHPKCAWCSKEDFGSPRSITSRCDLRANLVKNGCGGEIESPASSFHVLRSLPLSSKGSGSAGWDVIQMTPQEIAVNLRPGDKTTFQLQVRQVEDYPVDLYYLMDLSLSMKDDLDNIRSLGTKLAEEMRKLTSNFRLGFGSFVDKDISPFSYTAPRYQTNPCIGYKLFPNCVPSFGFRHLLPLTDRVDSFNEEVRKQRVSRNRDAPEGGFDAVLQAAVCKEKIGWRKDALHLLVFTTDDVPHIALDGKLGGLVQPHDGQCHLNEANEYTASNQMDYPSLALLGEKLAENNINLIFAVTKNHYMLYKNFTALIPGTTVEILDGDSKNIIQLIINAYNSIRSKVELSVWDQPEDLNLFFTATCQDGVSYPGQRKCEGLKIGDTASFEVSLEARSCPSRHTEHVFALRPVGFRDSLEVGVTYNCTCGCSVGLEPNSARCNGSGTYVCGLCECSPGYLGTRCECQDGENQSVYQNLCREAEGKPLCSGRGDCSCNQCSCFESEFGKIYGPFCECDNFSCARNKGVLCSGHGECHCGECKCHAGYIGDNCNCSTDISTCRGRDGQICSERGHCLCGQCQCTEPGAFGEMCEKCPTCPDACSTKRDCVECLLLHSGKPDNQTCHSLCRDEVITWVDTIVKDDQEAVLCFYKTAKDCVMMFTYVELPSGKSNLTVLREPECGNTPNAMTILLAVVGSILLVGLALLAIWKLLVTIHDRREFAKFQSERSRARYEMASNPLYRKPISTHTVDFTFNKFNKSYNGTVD

Brightness (integration, A.U.) of plate of HPF cells after exosome introduction; integrin β5-introduced exosome + anti-integrin β5 antibodies (6.1 × 10^6 without antibodies): 5.1e+06 A.U.
Substance: anti-integrin β5 antibodies (model number D24A5, rabbit monoclonal antibodies #3629, commercially available from Cell Signaling Technology) (antibody)
